Target: T1, FN14 on transiently transfected 293-F cells (human) (UniProt Q9NP84)
T1 sequence (looked up): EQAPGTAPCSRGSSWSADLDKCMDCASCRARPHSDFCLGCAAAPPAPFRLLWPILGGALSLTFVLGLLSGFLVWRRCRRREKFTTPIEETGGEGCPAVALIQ
Experiment: apparent affinity of the recombinant chimeric mAb, saturation binding

B1: anti-FN14 mAb FS24 (after 7 additional selections, recombinant chimeric mAb) (antibody, from another filing, V domains shown)
VH: AVTLDESGGGLQTPGGALSLVCKASGFTFSSYDMAWVRQEPGKGLEWVAGIDYDGSGRRYAPAVKGRATISRDNGQSTLRLQLNNLRAEDTGTYYCTKCGYTGGCDYEGGYIDAWGHGTEVIVSS
VL: ALTQPSSVSANPGETVKITCSGGGSSYYAGSYYYGWYQQKAPGSAPVTLIYYNNKRPSDIPSRFSGSLSGSTNTLTITGVRADDEAVYFCGSIDNSGAAFGAGTTLTVLG
Kd: 260 pM

Reference: patent US20130261012A1
